Data on 5 molecules can be found in publication PMC11103505 (2024).

What all share (test): SPR
The target of test [1] is T1, recombinant mouse AXL protein (mouse, UniProt Q00993 19-445).
T1 chain: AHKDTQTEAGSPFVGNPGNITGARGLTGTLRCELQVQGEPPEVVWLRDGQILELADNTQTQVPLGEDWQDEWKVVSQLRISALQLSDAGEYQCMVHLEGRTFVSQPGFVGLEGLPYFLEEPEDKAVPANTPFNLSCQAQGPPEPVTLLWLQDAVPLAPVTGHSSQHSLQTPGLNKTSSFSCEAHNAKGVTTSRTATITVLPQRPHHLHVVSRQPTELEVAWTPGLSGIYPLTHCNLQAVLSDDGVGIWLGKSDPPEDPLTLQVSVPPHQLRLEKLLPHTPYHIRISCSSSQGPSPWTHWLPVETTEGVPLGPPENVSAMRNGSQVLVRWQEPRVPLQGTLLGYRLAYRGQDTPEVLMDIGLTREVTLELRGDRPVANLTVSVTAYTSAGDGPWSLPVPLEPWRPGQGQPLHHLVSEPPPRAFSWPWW

For test [2], the target named is recombinant human AXL protein (human, UniProt P30530 26-451).
Target sequence in this assay (P30530 26-451): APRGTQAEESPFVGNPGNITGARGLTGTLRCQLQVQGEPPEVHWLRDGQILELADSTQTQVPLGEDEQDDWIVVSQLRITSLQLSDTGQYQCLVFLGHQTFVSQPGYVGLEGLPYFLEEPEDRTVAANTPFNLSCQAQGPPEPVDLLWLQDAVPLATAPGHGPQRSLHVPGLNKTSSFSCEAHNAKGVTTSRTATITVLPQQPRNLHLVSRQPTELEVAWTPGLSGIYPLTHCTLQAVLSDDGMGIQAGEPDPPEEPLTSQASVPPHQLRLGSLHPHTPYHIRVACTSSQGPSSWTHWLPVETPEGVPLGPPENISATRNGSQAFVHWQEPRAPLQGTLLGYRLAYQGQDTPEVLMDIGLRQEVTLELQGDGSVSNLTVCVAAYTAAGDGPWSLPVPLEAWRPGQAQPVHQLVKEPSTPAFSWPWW
Test [3] shares this target. This is another data set of the same source.
Target sequence in this assay (P30530 26-451): as above
For test [4], the target named is T2, recombinant mouse AXL protein (mouse, UniProt Q00993 19-445).
T2 chain: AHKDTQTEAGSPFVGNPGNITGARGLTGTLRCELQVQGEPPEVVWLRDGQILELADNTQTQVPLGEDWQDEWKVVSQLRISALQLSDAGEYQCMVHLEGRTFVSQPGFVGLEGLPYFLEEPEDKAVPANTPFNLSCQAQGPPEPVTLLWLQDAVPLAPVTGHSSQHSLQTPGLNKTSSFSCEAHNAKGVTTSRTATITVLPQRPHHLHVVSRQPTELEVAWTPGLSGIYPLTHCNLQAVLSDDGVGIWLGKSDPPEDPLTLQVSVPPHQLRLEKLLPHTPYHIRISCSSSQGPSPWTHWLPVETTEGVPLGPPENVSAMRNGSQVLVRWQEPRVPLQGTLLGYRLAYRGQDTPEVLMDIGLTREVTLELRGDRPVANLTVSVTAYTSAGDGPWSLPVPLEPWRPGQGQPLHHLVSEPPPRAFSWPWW

B1: anti-AXL single domain antibody sdAb25 (VHH)
VHH: QVQLQESGGGLVQPGGSLRLSCVASGSIFSIYAMGWYRQAPGKQRELVAGISSGGSTNYADSVKGRFTISRDNAKNTVYLQMNSLKPEDTAVYYCNYDLVEAVTGEYDYWGQGTQVTVSS
As for B1, the Kd (usually the equilibrium constant for the complex coming apart) worked out at 439 nM in test [1] and 9.1 nM in test [2].

B2: anti-AXL single domain antibody sdAb4 (VHH)
VHH: QVQLQESGGGLVQPGGSLRLSCVASGSIFSIYAMGWYRQAPGKQRELVAGISSGGSTNYADSVKGRFTISRDNAKNTVYLQMNSLKPEDTAVYYCNYDLVKAVTGEYDYWGQGTQVTVSS
Turning to B2, the Kd in test [1] was 541 nM; in test [2] it was 10.8 nM.

B3: anti-AXL single domain antibody sdAb12 (VHH)
VHH: QVQLQESGGGLVKPGGSLRLSCVASGSIFSIYAMGWYRQAPGKQRELVAGISSGGSTNYADSVKGRFTISRDNAKNTVYLQMNSLKPEDTAVYYCNYDLVEAVTGEYDYWGQGTQVTVSS
B3: the Kd in test [1] is 354 nM; in test [2], 7.7 nM.

B4: anti-AXL single domain antibody sdAb19 (VHH)
VHH: QVQLQESGGGMVQPGGSLRLSCAASGFTFTSYDMTWLRQTPGKGPEWVSTISTGGLRTYYGNSVKGRFIISRDNTKNTLYLQMNSLKPEDTALYYCARGPFTVADPRRGQGTQVTVSS
On to B4, for which the Kd worked out at 11.8 nM in test [1] and 24 nM in test [2].

B5: anti-AXL single domain antibody sdAb20 (VHH)
VHH: QVQLQESGGGLVRPGGSLRLSCAASGFTFTSYDMTWLRQTPGKGPEWVSTISTGGLRTYYGNSVKGRFIISRDNTKNTLYLQMNSLKPEDTALYYCARGPFTVADPRRGQGTQVTVSS
For the molecule B5, the values for the Kd in test [3] and in test [4] were 22 nM and 5.2 nM, respectively.
